{
  "source": "patent US8703143",
  "about": "(PHILOGEN S P A, dated 2014)",
  "key": {"[1]": {"target": "T1, fibronectin purified from the conditioned medium of the SV40-transformed cell line WI38VA13 (human, UniProt P02751 32-2477)", "T1 construct": "mature; Mixture of isoforms, most of them B+; also called FN WI38VA; WI38VA FN", "T1 sequence (P02751 32-2477)": "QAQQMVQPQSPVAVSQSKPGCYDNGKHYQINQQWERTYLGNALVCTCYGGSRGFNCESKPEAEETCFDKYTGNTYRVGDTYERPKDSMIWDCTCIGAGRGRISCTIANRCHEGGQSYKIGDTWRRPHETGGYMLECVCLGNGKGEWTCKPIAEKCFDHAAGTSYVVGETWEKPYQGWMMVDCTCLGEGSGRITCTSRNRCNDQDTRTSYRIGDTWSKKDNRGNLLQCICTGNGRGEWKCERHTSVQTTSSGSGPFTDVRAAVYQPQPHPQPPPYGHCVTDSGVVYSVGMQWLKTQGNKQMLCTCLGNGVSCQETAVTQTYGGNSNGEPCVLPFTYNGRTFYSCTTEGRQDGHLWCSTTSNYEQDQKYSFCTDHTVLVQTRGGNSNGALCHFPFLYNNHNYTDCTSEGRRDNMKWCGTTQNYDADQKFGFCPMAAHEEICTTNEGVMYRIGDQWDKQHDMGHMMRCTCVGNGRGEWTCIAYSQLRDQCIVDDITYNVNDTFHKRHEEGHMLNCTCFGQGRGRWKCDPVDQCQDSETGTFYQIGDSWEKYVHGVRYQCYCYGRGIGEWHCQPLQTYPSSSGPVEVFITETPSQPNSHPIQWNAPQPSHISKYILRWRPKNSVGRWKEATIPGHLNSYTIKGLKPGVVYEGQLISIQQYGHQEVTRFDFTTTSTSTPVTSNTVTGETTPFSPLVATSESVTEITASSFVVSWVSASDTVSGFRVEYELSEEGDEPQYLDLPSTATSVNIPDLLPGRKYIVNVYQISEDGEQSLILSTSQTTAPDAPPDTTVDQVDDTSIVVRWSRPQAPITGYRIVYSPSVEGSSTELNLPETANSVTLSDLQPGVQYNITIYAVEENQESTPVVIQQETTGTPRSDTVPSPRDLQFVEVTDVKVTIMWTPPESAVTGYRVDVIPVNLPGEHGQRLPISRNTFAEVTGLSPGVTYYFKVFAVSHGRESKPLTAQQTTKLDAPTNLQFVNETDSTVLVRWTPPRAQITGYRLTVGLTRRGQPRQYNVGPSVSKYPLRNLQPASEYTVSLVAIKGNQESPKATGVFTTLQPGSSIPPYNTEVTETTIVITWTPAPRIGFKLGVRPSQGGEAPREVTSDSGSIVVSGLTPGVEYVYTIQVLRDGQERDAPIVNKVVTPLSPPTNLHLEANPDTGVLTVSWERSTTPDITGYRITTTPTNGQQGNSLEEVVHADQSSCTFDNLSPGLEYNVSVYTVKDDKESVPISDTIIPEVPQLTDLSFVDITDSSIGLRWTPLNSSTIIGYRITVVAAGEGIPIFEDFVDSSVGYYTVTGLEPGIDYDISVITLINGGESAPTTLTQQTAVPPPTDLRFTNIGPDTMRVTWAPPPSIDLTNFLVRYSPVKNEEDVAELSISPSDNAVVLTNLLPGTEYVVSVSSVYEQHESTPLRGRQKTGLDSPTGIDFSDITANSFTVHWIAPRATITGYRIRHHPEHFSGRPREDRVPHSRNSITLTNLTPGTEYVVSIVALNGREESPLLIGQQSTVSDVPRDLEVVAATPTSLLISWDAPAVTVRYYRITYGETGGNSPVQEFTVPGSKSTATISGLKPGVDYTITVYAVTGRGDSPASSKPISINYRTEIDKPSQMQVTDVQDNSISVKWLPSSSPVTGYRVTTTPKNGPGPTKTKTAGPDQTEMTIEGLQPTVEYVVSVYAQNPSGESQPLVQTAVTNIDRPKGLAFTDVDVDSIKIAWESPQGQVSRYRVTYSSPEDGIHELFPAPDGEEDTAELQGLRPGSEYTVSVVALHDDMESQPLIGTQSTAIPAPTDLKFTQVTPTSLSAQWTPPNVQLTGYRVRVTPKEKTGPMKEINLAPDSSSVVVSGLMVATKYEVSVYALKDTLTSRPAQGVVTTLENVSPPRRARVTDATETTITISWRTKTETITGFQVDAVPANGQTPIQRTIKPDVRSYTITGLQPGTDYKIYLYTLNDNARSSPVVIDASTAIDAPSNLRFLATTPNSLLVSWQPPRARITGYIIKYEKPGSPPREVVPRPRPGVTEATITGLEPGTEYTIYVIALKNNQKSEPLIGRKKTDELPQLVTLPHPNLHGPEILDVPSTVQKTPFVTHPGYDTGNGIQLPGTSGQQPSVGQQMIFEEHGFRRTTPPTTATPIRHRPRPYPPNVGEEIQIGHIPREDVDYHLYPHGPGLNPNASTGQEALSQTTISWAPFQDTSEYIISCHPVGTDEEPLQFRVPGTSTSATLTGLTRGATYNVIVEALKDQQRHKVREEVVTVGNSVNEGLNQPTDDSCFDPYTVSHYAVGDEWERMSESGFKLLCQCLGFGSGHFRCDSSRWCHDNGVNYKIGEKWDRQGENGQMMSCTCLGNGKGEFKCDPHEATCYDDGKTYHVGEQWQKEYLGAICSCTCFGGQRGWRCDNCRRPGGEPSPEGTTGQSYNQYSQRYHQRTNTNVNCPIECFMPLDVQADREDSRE", "assay": "BIAcore, monomeric scFv on immobilised antigen", "protocol": "(§1) Binding of monovalent scFv at various concentrations in the 0.1-1 μM range in PBS was measured on a BIAcore machine (Pharmacia Biosensor), using the following antigens: (i) 1000 Resonance Units (RU) of biotinylated recombinant FN fragment 7B89 immobilised on a streptavidin coated chip, which was bound specifically by 250 RU of scFv; (ii) 200 RU of recombinant ED-B, chemically immobilised at the N-terminal amino group, which was bound specifically by 600 RU of scFv; (iii) 3500 RU of ED-B-rich fibronectin WI38VA (see Example 3), which was bound specifically by 150 RU of scFv. Kinetic analysis of the data was performed according to the manufacturers' instructions. On the basis of qualitative BIAcore analysis of antibody-containing supernatants, one affinity-matured version of each scFv clone was selected: clone CGS-1 from selection with the 78B9 fragment and CGS-2 from selection with ED-B recombinant FN fragment. The association rate constants ($kon$) and dissociation rate constants ($koff$) are shown in Table 1, together with the calculated equilibrium dissociation constants (Kd) of both scFvs and the original clone 28SI. […] The improvement was due mainly to a slower kinetic dissociation constant (-10^-4 s^-1), as measured with monomeric antibody preparations (not shown)."}, "[2]": {"target": "T2, recombinant FN fragment 7B89 (human, UniProt P02751 1173-1537, limits assumed, biotinylated for BIAcore (sites not given))", "T2 construct": "domain: type III homology repeats 7B89; also called rec FN7B89; 78B9 [sic]", "T2 sequence (P02751 other isoform, or with tags, fused parts or gaps limits assumed)": "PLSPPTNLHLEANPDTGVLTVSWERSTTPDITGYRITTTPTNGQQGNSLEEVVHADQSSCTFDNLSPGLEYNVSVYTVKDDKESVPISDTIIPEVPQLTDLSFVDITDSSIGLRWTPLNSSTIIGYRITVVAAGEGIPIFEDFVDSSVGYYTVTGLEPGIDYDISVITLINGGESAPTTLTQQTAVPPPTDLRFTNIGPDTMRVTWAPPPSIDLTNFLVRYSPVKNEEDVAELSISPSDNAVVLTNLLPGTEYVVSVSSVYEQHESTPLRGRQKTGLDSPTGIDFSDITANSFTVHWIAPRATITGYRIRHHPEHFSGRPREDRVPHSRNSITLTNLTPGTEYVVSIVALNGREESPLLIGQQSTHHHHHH", "assay": "BIAcore, monomeric scFv on immobilised antigen", "protocol": "as §1"}, "[3]": {"target": "T3, recombinant ED-B domain of human fibronectin with a carboxy terminal hexahistidine tag (human, UniProt P02751 1266-1356)", "T3 construct": "domain: ED-B; In BIAcore chemically immobilised at the N-terminal amino group; also called rec ED-B; recombinant ED-B peptide", "T3 sequence (P02751 other isoform, or with tags, fused parts or gaps limits assumed)": "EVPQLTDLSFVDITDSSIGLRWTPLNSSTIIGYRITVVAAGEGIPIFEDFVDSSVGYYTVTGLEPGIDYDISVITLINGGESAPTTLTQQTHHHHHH", "assay": "BIAcore, monomeric scFv on immobilised antigen", "protocol": "as §1"}, "recombinant FN domain 6 [4]": {"target": "T4, recombinant FN domain 6 (human, UniProt P02751 1086-1172, limits assumed)", "T4 construct": "domain: FN-6; also called rec FN-6; rec FN6", "T4 sequence (P02751 other isoform, or with tags, fused parts or gaps limits assumed)": "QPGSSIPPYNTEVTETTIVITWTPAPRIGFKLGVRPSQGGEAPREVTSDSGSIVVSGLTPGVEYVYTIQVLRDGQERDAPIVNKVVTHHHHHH", "assay": "ELISA on coated antigen, background subtracted", "protocol": "(§2) All antigens used in ELISA were diluted in PBS to between 50-100 μg/ml and coated at 4° C. overnight onto Immuno-Plate wells (Nunc, Roskilde, Denmark). Unbound antigen was removed with PBS and plates were then blocked with PBS containing 3% (w/v) bovine serum albumin (BSA) for 2 h at 37° C. This was followed by four washes with PBS containing 0.05% Tween 20 (PBST). Antibodies were then allowed to bind at 37° C. for 1.5 h; scFvs were preincubated with an antiserum directed against the tag sequence: mAb M2 [Kodak, New Haven Conn.] for the FLAG tag or 9E10 [ATCC, Rockville, Md.] for the myc tag. Control antibodies tested were mAbs BC-1 and IST-6. After four washes with PBST, the plates were incubated for 1 h at 37° C. with 1:2000 diluted (in PBST+3% BSA) biotinylated goat anti-mouse IgG (Bio-SPA Division, Milan, Italy). The washes were repeated and Streptavidin-biotinylated alkaline phosphatase complex (Bio-SPA Division, Milan, Italy) was added (1:800 diluted in PBST containing 2 mM MgCl2) for 1 h at 37° C. The reaction was developed using Phosphatase substrate tablets (Sigma) in 10% diethanolamine, pH 9.8 and the optical density was read at 405 nm."}, "[5]": {"target": "T1, fibronectin purified from the …", "assay": "ELISA on coated antigen, background subtracted", "protocol": "as §2"}, "[6]": {"target": "T2, recombinant FN fragment 7B89", "assay": "ELISA on coated antigen, background subtracted", "protocol": "as §2"}, "[7]": {"target": "T3, recombinant ED-B domain of human …", "assay": "ELISA on coated antigen, background subtracted", "protocol": "as §2"}, "[8]": {"target": "T5, native FN 110 kD (B-) thermolysin fragment (human, UniProt P02751-1 722-1630, limits assumed)", "T5 construct": "domain: thermolysin treated FN domain 4, without ED-B; also called 110 kD protein", "T5 sequence (P02751 other isoform, or with tags, fused parts or gaps limits assumed)": "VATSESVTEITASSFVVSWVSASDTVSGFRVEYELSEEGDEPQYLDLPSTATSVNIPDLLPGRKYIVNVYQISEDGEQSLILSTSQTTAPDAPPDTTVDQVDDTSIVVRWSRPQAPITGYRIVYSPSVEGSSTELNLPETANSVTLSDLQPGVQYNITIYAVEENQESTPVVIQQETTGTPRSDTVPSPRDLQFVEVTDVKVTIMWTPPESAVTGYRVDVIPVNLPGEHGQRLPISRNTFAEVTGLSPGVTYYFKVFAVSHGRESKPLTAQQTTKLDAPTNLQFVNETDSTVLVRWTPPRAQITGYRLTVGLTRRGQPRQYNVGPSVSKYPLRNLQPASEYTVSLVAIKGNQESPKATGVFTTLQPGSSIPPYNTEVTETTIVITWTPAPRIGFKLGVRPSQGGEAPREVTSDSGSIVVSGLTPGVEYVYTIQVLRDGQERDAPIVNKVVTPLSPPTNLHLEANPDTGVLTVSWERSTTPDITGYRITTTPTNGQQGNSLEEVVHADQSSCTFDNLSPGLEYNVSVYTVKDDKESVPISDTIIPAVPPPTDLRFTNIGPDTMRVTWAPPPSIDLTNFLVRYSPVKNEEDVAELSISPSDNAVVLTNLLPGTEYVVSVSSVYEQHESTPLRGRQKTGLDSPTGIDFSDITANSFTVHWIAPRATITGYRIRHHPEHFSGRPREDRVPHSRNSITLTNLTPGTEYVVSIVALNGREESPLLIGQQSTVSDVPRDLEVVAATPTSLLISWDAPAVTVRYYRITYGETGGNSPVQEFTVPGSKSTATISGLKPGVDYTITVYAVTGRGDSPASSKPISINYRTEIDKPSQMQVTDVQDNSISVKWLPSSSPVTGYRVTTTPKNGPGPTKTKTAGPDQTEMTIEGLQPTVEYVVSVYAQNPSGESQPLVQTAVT", "assay": "ELISA on coated antigen, background subtracted", "protocol": "as §2"}, "[9]": {"target": "T6, native FN 120 kD (B+) thermolysin fragment (human, UniProt P02751 722-1721, limits assumed)", "T6 construct": "domain: thermolysin treated FN domain 4, containing ED-B; also called 120 kD protein; 120 kD domain", "assay": "ELISA on coated antigen, background subtracted", "protocol": "as §2"}, "[10]": {"target": "T7, recombinant FN fragment 789 (human, UniProt P02751-1 1173-1446, limits assumed)", "T7 construct": "domain: type III homology repeats 789; the text treats it as lacking ED-B; also called rec FN789", "T7 sequence (P02751 other isoform, or with tags, fused parts or gaps limits assumed)": "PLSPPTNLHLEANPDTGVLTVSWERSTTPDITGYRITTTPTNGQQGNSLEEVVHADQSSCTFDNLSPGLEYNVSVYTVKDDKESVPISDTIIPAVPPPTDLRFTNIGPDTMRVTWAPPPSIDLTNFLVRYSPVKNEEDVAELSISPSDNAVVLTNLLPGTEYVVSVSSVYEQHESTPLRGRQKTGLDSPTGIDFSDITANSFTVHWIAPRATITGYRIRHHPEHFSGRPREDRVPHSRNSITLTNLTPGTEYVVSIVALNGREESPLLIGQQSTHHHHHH", "assay": "ELISA on coated antigen, background subtracted", "protocol": "as §2"}, "recombinant FN domain 6 [11]": {"target": "T4, recombinant FN domain 6", "assay": "ELISA"}, "[12]": {"target": "T5, native FN 110 kD (B-) thermolysin …", "assay": "ELISA"}, "[13]": {"target": "T8, 85 kD thermolysin fragment of FN from WI38VA cells (human, UniProt P02751 722-1351, limits assumed)", "T8 construct": "domain: 85 kD fragment spanning repeats 2-7 in addition to the N-terminus of ED-B; also called 85 kD fragment; 85 kD domain", "T8 sequence (P02751 722-1351 limits assumed)": "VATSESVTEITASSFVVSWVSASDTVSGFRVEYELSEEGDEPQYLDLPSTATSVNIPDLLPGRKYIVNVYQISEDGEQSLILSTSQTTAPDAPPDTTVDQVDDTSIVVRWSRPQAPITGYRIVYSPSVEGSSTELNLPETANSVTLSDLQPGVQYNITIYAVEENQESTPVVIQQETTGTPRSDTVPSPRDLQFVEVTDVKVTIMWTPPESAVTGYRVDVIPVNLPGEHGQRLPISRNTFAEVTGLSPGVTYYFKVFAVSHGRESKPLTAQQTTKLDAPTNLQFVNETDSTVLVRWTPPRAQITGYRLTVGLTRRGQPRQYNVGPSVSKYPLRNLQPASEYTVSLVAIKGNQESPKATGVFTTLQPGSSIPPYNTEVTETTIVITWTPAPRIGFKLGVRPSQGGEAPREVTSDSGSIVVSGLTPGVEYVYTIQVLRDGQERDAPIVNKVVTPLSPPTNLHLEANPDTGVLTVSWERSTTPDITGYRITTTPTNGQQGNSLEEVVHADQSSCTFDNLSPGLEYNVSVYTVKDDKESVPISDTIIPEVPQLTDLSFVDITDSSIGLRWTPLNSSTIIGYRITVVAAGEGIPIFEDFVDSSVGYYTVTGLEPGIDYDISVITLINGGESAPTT", "assay": "immunoblot", "protocol": "(§3) The antigens used for ELISA and immunoblotting were prepared as follows. FN was purified from human plasma and from the conditioned medium of the WI38VA13 cell line as previously reported (Zardi et al, 1987). Purified FNs were digested with thermolysin (protease type X; Sigma Chemical Co.) as reported by Carnemolla et al (1989). Native FN 110 kD (B−) and native FN 120 kD (B+) fragments (see FIG. 2) were purified from a FN digest as previously reported (Borsi et al, 1991). The large isoform of tenascin-C was purified as reported by Saginati et al (1992). Recombinant proteins were expressed and purified as described in Example 1. SDS-PAGE and Western blotting were carried out as described by Carnemolla et al (1989).\n(§4) On the left hand side of FIG. 2B is a Coomassie stained gel of the protein fractions analysed by immunoblotting. Plasma FN (lane 1) and thermolysin digests of the protein (lane 3, containing the 110 kD protein, and lane 4, containing digested 110 kD protein) were not recognised by CGS-1 and CGS-2. In contrast, ED-B-rich FN from WI38VA cells, both intact (lane 2) and after increasing thermolysin digestion (lanes 5, 6 and 7) was recognised by both scFv fragments. […]"}, "[14]": {"target": "T1, fibronectin purified from the …", "assay": "BIAcore, monomeric scFv on immobilised antigen; Kd = koff/kon", "protocol": "as §1"}, "[15]": {"target": "T2, recombinant FN fragment 7B89", "assay": "BIAcore, monomeric scFv on immobilised antigen; Kd = koff/kon", "protocol": "as §1"}, "[16]": {"target": "T3, recombinant ED-B domain of human …", "assay": "BIAcore, monomeric scFv on immobilised antigen; Kd = koff/kon", "protocol": "as §1"}, "[17]": {"target": "T7, recombinant FN fragment 789", "assay": "immunoblot of recombinant FN proteins expressed in E. coli", "protocol": "The fine specificity of CGS-1 and CGS-2 was investigated further by immunoblotting using recombinant FN fragments and fusion proteins with or without the ED-B sequence. The FN fusion proteins were prepared as described by Carnemolla et al (1989). The results of these experiments are shown in FIG. 3; for the association of the schematic diagram to the structure of the domains of human FN, see Carnemolla et al, 1992."}, "mouse B-FN": {"target": "T9, mouse B-FN (mouse, UniProt P11276 33-2477, limits assumed)", "T9 construct": "also called mouse B+ fibronectin", "assay": "immunohistochemistry"}, "[18]": {"target": "T5, native FN 110 kD (B-) thermolysin …", "assay": "immunoblot", "protocol": "as §3, §4"}, "chicken B-FN": {"target": "T10, chicken B-FN (chicken, UniProt P11722 22-2483, limits assumed)", "T10 construct": "also called chicken B+ fibronectin", "assay": "immunohistochemistry"}},
  "data": [
    {"binder": "scFv CGS-1 (scFv, V domains shown, claims 6 and 8 say that 8 is a VH and 10 a VL; VH-linker-VL order follows from the cloning primers; Monomeric, FPLC-purified, in BIAcore; in the ELISA detected through a FLAG or myc tag) VH: QVQLVESGGGLVQPGGSLRLSCAVSGFTFSSYAMSWVRQAPGKGLEWVSAISGSGGSTYYADSVKGRFTISRDNSKNTLYLQMNSLRAEDTAVYYCARSLPKWGQGTLVTVSR VL: SSELTQDPAVSVALGQTVRITCQGDSLRSYYASWYQQKPGQAPVLVTYGKNNRPSGIPDRFSGSSSGNTASLTITGAQAEDEADYYCNSSPVVLNGVVFGGGTKLTVL", "values": [
      {"measurement": "koff", "setting": "[1]", "result": 0.005, "unit": "s⁻¹"},
      {"measurement": "kon", "setting": "[1]", "result": 410000, "unit": "M⁻¹ s⁻¹"},
      {"measurement": "koff", "setting": "[2]", "result": 0.0039, "unit": "s⁻¹"},
      {"measurement": "kon", "setting": "[2]", "result": 110000, "unit": "M⁻¹ s⁻¹"},
      {"measurement": "koff", "setting": "[3]", "result": 0.007, "unit": "s⁻¹"},
      {"measurement": "kon", "setting": "[3]", "result": 130000, "unit": "M⁻¹ s⁻¹"},
      {"measurement": "OD at 405 nm", "setting": "recombinant FN domain 6 [4]", "result": 0.01, "unit": "OD 405 nm"},
      {"measurement": "OD at 405 nm", "setting": "[5]", "result": 1.16, "unit": "OD 405 nm"},
      {"measurement": "OD at 405 nm", "setting": "[6]", "result": 1.11, "unit": "OD 405 nm"},
      {"measurement": "OD at 405 nm", "setting": "[7]", "result": 1.21, "unit": "OD 405 nm"},
      {"measurement": "OD at 405 nm", "setting": "[8]", "result": 0.03, "unit": "OD 405 nm"},
      {"measurement": "OD at 405 nm", "setting": "[9]", "result": 0.82, "unit": "OD 405 nm"},
      {"measurement": "OD at 405 nm", "setting": "[10]", "result": 0.01, "unit": "OD 405 nm"},
      {"measurement": "binding result", "setting": "recombinant FN domain 6 [11]", "result": "no binding"},
      {"measurement": "binding result", "setting": "[12]", "result": "no binding"},
      {"measurement": "binding result", "setting": "[13]", "result": "no binding"},
      {"measurement": "Kd", "setting": "[14]", "result": 12, "unit": "nM"},
      {"measurement": "Kd", "setting": "[15]", "result": 35, "unit": "nM"},
      {"measurement": "Kd", "setting": "[16]", "result": 54, "unit": "nM"},
      {"measurement": "binding result", "setting": "[17]", "result": "no binding"},
      {"measurement": "binding result", "setting": "mouse B-FN", "result": "binds"}
    ]},
    {"binder": "scFv CGS-2 (scFv, V domains shown, claims 7 and 9 say that 9 is a VH and 11 a VL; Monomeric, FPLC-purified, in BIAcore) VH: not shown VL: SSELTQDPAVSVALGQTVRITCQGDSLRSYYASWYQQKPGQAPVLVIYGKNNRPSGIPDRFSGSSSGNTASLTTTGAQAEDEADYYCNSSPFEHNLVVFGGGTKLTVL", "values": [
      {"measurement": "koff", "setting": "[1]", "result": 0.00065, "unit": "s⁻¹"},
      {"measurement": "kon", "setting": "[1]", "result": 290000, "unit": "M⁻¹ s⁻¹"},
      {"measurement": "koff", "setting": "[2]", "result": 0.00023, "unit": "s⁻¹"},
      {"measurement": "kon", "setting": "[2]", "result": 110000, "unit": "M⁻¹ s⁻¹"},
      {"measurement": "koff", "setting": "[3]", "result": 0.00015, "unit": "s⁻¹"},
      {"measurement": "kon", "setting": "[3]", "result": 130000, "unit": "M⁻¹ s⁻¹"},
      {"measurement": "OD at 405 nm", "setting": "recombinant FN domain 6 [4]", "result": 0.01, "unit": "OD 405 nm"},
      {"measurement": "OD at 405 nm", "setting": "[5]", "result": 0.72, "unit": "OD 405 nm"},
      {"measurement": "OD at 405 nm", "setting": "[6]", "result": 1.02, "unit": "OD 405 nm"},
      {"measurement": "OD at 405 nm", "setting": "[7]", "result": 1.32, "unit": "OD 405 nm"},
      {"measurement": "OD at 405 nm", "setting": "[8]", "result": 0.01, "unit": "OD 405 nm"},
      {"measurement": "OD at 405 nm", "setting": "[9]", "result": 0.81, "unit": "OD 405 nm"},
      {"measurement": "OD at 405 nm", "setting": "[10]", "result": 0.01, "unit": "OD 405 nm"},
      {"measurement": "binding result", "setting": "recombinant FN domain 6 [11]", "result": "no binding"},
      {"measurement": "binding result", "setting": "[18]", "result": "no binding"},
      {"measurement": "Kd", "setting": "[14]", "result": 2.4, "unit": "nM"},
      {"measurement": "Kd", "setting": "[15]", "result": 2.1, "unit": "nM"},
      {"measurement": "Kd", "setting": "[16]", "result": 1.1, "unit": "nM"},
      {"measurement": "binding result", "setting": "[17]", "result": "no binding"},
      {"measurement": "binding result", "setting": "mouse B-FN", "result": "binds"},
      {"measurement": "binding result", "setting": "chicken B-FN", "result": "binds"}
    ]}
  ]
}
